Assay results from the Immune Epitope Database (IEDB).
pIC50: −log10 of the molar value.

The sequences below were run against HLA-B*07:02 (assay: IEDB peptide-MHC binding, purified MHC/competitive/radioactivity; ≥ and ≤ were set here for values at or beyond the usual limits of such assays). Settings: source organism: Bordetella pertussis.

Question: QPLPPRPVA was tested. Which pIC50 did it give?
Answer: 5.08

The sequences below were run against HLA-B*53:01 in the same assay as above. Settings: source organism: Bordetella pertussis.

Question: With TFEGKPALE as the sequence, how does the pIC50 read?
Answer: 4.34

Question: With AQQLKQADR as the sequence, how does the pIC50 read?
Answer: 4.33

Question: FVWYVDTVI was tested. Which pIC50 did it give?
Answer: 4.52

Question: AIRVGRGAR was tested. Which pIC50 did it give?
Answer: 4.28

Question: How did the pIC50 turn out when LPVSLTALD was run?
Answer: 4.64

Question: How did the pIC50 turn out when LPLKANPMH was run?
Answer: ≤ 4.11

Question: With VVDGPPSRP as the sequence, how does the pIC50 read?
Answer: 4.16

These sequences were tested against HLA-B*44:03 in the same assay as above. Settings: source organism: Bordetella pertussis.

Question: With TTEYPNARY as the sequence, how does the pIC50 read?
Answer: 4.20

Question: With PELGAAIRV as the sequence, how does the pIC50 read?
Answer: 5.19

Question: How did the pIC50 turn out when TRQGIMDQY was run?
Answer: 4.19

Each sequence was assayed against HLA-B*35:01 in the same assay as above. Settings: source organism: Bordetella pertussis.

Question: How did the pIC50 turn out when MDAKGGTLL was run?
Answer: 4.16

Question: How did the pIC50 turn out when EVAKVEVVP was run?
Answer: 4.16

Question: How did the pIC50 turn out when VPASGAPAA was run?
Answer: 5.33

Question: How did the pIC50 turn out when LPVSLTALD was run?
Answer: 5.15

Each sequence was assayed against HLA-A*02:01 in the same assay as above. Settings: source organism: Bordetella pertussis.

Question: ILLENPAAE was tested. Which pIC50 did it give?
Answer: 4.73

Question: With FVWYVDTVI as the sequence, how does the pIC50 read?
Answer: 6.10

Question: How did the pIC50 turn out when GIGALKAGA was run?
Answer: 4.16

Question: VSSPPPVSV was tested. Which pIC50 did it give?
Answer: 4.31

Question: SLFAPHGNV was tested. Which pIC50 did it give?
Answer: 5.15

What follows are sequences tested against HLA-B*57:01 in the same assay as above. Settings: source organism: Bordetella pertussis.

Question: With RGSAATFTL as the sequence, how does the pIC50 read?
Answer: 4.97

Question: With DNEGKMESN as the sequence, how does the pIC50 read?
Answer: ≤ 4.15
